Assay results published in PMC5698441, “Molecular basis of AKAP79 regulation by calmodulin” (Nature Communications, 2017).

How the values were obtained:
[1] = biological target: calcineurin, WT (UniProt Q08209)
[2] = biological target: calcineurin I396A/I400A (UniProt Q08209)

half-maximal CaM concentration (KCaM) for activation of phosphatase activity against a phosphorylated RII peptide [1]: 30 nM
half-maximal CaM concentration (KCaM) for activation of phosphatase activity against a phosphorylated RII peptide [2]: 670 nM
Substance: human CaM, untagged (pET28-a) (from UniProt P0DP23 1-149) (natural protein)
